The values below come from US20150064134A1.

Some targets named below: CDK2/cyclinE(h) (human) (UniProt P24941); EGFR(L861Q)(h) (human) (UniProt P00533); AMPKα1(h) (human) (UniProt Q13131); BRK(h) (human) (UniProt Q13882); CaMKIIγ(h) (human) (UniProt Q13555); TrkA(h) (human) (UniProt P04629); CHK2(h) (human) (UniProt O96017); ALK(h) (human) (UniProt Q9UM73); IRAK1(h) (human) (UniProt P51617); Tie2(Y897S)(h) (human) (UniProt Q02763); PDGFRα(V561D)(h) (human) (UniProt P16234); PKCβI(h) (human) (UniProt P05771).

Holding throughout (assay): cell-based or functional assay
The target in a further test is T1, TBK1(h) (human) (UniProt Q9UHD2).
T1 sequence (looked up): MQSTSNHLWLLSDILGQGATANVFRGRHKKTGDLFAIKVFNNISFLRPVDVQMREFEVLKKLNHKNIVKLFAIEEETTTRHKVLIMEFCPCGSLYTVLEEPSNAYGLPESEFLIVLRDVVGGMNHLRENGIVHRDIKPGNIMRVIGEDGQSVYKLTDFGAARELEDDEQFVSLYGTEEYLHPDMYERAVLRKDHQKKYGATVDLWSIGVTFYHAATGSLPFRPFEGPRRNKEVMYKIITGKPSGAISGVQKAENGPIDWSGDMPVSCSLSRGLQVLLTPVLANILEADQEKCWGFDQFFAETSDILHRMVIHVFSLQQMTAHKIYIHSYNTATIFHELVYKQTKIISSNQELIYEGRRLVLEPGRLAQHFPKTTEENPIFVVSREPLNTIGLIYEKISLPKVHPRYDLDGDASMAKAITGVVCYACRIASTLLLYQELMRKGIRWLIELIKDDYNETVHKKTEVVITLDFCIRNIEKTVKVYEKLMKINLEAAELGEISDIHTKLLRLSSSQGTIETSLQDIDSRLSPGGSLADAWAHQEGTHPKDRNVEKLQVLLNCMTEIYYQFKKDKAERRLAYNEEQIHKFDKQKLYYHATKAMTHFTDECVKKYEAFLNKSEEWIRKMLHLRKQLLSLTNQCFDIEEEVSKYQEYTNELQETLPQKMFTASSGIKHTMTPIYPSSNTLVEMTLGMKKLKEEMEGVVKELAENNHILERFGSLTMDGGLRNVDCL

In the next test the target is T2, Txk(h) (human) (UniProt P42681).
T2 sequence (looked up): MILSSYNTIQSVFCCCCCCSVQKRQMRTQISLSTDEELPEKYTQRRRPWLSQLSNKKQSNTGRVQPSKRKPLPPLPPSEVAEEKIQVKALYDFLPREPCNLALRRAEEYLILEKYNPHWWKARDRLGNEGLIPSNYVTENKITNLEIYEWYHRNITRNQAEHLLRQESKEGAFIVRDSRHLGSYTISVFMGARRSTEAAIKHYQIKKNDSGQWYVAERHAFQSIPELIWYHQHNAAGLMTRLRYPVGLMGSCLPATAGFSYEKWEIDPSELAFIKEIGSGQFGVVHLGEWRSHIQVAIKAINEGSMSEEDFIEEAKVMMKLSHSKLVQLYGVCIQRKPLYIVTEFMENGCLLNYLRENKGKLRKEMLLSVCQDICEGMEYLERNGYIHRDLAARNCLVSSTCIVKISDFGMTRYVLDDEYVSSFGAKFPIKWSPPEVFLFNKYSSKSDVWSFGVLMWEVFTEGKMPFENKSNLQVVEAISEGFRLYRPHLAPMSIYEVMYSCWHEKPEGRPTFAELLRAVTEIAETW

Another test concerns the target T3, IKKα(h) (human) (UniProt O15111).
T3 sequence (looked up): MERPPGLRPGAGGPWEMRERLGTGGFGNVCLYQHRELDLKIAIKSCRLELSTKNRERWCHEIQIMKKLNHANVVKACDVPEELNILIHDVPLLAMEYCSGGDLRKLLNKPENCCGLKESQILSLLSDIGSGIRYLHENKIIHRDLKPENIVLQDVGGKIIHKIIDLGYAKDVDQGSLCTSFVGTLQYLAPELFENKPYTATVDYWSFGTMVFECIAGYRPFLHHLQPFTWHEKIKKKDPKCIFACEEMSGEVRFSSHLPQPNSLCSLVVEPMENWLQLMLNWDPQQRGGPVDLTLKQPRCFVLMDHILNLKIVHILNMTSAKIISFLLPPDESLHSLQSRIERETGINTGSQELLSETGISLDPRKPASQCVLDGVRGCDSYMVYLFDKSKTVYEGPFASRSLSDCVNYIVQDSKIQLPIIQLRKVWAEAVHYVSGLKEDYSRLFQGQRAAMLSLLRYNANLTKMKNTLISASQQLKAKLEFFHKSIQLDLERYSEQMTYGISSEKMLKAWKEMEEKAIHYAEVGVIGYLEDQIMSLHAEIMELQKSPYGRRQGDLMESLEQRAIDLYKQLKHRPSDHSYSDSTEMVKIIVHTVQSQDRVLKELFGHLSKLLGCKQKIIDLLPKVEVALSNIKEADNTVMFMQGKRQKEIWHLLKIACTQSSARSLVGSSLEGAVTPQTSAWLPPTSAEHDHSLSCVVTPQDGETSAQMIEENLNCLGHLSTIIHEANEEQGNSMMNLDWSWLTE

The target of another test is T4, SAPK4(h) (human) (UniProt O15264).
T4 sequence (looked up): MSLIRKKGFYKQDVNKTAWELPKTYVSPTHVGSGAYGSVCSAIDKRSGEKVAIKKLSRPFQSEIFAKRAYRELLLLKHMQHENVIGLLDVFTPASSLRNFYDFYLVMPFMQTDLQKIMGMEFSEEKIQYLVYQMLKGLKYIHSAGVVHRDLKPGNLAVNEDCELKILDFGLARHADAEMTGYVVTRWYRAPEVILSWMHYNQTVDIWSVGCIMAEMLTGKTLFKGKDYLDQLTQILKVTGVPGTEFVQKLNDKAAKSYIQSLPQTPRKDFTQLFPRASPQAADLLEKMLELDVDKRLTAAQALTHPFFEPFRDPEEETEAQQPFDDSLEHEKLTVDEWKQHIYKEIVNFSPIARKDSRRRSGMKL

Sequence of CHK2(h) (human) (O96017 5-543 limits assumed): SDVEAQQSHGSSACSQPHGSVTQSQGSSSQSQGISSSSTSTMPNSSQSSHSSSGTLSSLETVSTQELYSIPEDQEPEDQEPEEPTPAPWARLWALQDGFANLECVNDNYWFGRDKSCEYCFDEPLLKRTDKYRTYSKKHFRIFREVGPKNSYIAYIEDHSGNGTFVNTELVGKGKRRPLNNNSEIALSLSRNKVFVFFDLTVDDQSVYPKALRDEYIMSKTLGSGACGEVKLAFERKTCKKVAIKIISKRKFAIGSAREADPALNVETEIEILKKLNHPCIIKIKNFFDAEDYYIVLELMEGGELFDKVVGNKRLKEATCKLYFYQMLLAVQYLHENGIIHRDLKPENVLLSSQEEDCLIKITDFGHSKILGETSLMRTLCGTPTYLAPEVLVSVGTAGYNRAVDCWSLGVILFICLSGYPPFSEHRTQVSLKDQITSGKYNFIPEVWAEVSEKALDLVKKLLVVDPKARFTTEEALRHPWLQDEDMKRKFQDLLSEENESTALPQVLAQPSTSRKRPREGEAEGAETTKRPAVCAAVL
Sequence of CaMKIIγ(h) (human) (Q13555 whole entry): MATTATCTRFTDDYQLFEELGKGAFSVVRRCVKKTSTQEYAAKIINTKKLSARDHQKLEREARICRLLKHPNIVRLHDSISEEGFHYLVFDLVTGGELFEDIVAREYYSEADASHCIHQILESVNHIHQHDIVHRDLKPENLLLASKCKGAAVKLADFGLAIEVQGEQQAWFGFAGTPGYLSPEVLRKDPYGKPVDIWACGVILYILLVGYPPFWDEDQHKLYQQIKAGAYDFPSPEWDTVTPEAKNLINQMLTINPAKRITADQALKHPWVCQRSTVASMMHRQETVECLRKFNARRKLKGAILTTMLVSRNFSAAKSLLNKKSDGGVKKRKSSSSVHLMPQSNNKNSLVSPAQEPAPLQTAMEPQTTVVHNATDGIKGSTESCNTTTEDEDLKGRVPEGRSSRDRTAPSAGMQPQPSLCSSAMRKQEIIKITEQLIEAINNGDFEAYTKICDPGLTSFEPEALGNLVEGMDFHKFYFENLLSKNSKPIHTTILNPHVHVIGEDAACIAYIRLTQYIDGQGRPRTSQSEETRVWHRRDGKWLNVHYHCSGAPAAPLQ
Sequence of Tie2(Y897S)(h) (human) (Q02763 771-1124 Y897S limits assumed): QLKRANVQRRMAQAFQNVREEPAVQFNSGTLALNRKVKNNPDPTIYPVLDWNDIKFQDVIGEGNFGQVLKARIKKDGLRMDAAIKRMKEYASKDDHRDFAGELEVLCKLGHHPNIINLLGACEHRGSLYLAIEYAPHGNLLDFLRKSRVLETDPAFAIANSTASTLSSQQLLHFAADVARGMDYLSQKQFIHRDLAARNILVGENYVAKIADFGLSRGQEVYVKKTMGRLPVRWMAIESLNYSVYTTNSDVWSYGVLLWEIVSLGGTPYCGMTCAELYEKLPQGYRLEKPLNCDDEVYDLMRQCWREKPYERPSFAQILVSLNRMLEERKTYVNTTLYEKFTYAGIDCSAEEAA
Sequence of PDGFRα(V561D)(h) (human) (P16234 550-1089 V561D limits assumed): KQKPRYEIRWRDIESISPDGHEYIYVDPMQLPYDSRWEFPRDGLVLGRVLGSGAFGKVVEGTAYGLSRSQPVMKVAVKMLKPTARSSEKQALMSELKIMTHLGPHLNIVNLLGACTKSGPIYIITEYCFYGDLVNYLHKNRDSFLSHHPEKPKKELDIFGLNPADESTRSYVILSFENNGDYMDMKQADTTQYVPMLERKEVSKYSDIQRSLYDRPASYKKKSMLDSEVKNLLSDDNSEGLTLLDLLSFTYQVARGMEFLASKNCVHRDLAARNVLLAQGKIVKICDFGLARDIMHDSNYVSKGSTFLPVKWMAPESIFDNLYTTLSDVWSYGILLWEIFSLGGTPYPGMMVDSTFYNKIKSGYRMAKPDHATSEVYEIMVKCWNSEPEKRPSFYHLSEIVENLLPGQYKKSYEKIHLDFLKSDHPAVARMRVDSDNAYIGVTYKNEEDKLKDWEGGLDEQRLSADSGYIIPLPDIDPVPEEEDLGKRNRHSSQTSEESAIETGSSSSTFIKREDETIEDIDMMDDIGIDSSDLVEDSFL

On to MMI-0300 (peptide), for which the % activity at 100 µM in the test with CDK2/cyclinE(h) (human) was 94%; in the test with TBK1(h) (human), 37%; in the test with Txk(h) (human), 48%; in the test with EGFR(L861Q)(h) (human), 25%; with AMPKα1(h) (human), 71%; in the test with BRK(h) (human), 35%. For the same substance, the % activity at 100 µM with CaMKIIγ(h) (human) is 5%; with IKKα(h) (human), 93%; with TrkA(h) (human) it was 25%; with CHK2(h) (human), 66%; with ALK(h) (human), 19%; with SAPK4(h) (human), 96%. The % activity at 100 µM with IRAK1(h) (human) was 95%; with Tie2(Y897S)(h) (human), 83%; with PDGFRα(V561D)(h) (human), 82%; in the test with PKCβI(h) (human), 78%.

MMI-0500 (peptide): the % activity at 100 µM came out at 19% with CDK2/cyclinE(h) (human); 16% with TBK1(h) (human); 10% with Txk(h) (human); 15% in the test with EGFR(L861Q)(h) (human); 35% in the test with AMPKα1(h) (human); 41% with BRK(h) (human). For the same substance, the % activity at 100 µM is 3% with CaMKIIγ(h) (human); 50% with IKKα(h) (human); 24% with TrkA(h) (human); 13% in the test with CHK2(h) (human); 12% with ALK(h) (human); 48% in the test with SAPK4(h) (human). In addition, the % activity at 100 µM in the test with IRAK1(h) (human) was determined as 5%; with Tie2(Y897S)(h) (human), 80%; in the test with PDGFRα(V561D)(h) (human), 146%; with PKCβI(h) (human), 1%.

Regarding MMI-0400 (peptide), the % activity at 100 µM with CDK2/cyclinE(h) (human) stood at 83%; in the test with TBK1(h) (human), 39%; with Txk(h) (human), 37%; with EGFR(L861Q)(h) (human), 22%; in the test with AMPKα1(h) (human), 87%; with BRK(h) (human) it was 18%. Besides, the % activity at 100 µM with CaMKIIγ(h) (human) was determined as 3%; with IKKα(h) (human), 87%; in the test with TrkA(h) (human), 17%; with CHK2(h) (human), 54%; in the test with ALK(h) (human), 16%; with SAPK4(h) (human), 91%. The % activity at 100 µM is 93% with IRAK1(h) (human), 87% with Tie2(Y897S)(h) (human), 100% in the test with PDGFRα(V561D)(h) (human) and 78% in the test with PKCβI(h) (human).
